This passage reports ratio to parent results from publication PMC4703885.

The assay has as its target protein phosphatase PP1 (endogenous), P36873. Put plainly: EGFP trap, immunoblotting, densitometric analysis. The following applies: chain shown with the change; non-synchronized HEK293T cells; three independent experiments; parent: est. 1.0; read off a plot.

protein phosphatase PP1 (endogenous), P36873, sequence (P36873 whole entry): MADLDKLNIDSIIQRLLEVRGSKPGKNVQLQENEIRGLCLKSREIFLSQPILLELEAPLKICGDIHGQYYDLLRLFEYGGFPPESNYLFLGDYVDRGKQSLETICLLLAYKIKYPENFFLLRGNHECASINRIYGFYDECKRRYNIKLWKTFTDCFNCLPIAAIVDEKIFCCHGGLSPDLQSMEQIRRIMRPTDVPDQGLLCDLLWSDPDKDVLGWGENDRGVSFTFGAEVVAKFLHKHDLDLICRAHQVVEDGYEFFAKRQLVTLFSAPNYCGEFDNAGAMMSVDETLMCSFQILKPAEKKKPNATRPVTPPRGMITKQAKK

B1: EGFP-tagged RepoMan-WT, Q69YH5 S400D; T412D; T419D (protein)
chain: MDANSKDKPPETKESAMNNAGNASFILGTGKIVTPQKHAELPPNPCTPDTFKSPLNFSTVTVEQLGITPESFVRNSAGKSSSYLKKCRRRSAVGARGSPETNHLIRFIARQQNIKNARKSPLAQDSPSQGSPALYRNVNTLRERISAFQSAFHSIKENEKMTGCLEFSEAGKESEMTDLTRKEGLSACQQSGFPAVLSSKRRRISYQRDSDENLTDAEGKVIGLQIFNIDTDRACAVETSVDLSEISSKLGSTQSGFLVEESLPLSELTETSNALKVADCVVGKGSSDAVSPDTFTAEVSSDAVPDVRSPATPACRRDLPTPKTFVLRSVLKKPSVKMCLESLQEHCNNLYDDDGTHPSLISNLPNCCKEKEAEDEENFEAPAFLNMRKRKRVTFGEDLDPEVFDESLPANDPLRKGGDPVCKKDFSGLSSLLLEQSPVPEPLPQPDFDDKGENLENIEPLQVSFAVLSSPNKSSISETLSGTDTFSSSNNHEKISSPKVGRITRTSNRRNQLVSVVEESVCNLLNTEVQPCKEKKINRRKSQETKCTKRALPKKSQVLKSCRKKKGKGKKSVQKSLYGERDIASKKPLLSPIPELPEVPEMTPSIPSIRRLGSGYFSSNGKLEEVKTPKNPVKRKDLLRHDPDLHMHQGYDKYDVSEFCSYIKSSSSLGNATSDEDPNTNIMNINENKNIPKAKNKSESENEPKAGTDSPVSCASVTEERVASDSPKPALTLQQGQEFSAGGQNAENLCQFFKISPDLNIKCERKDDFLGAAEGKLQCNRLMPNSQKDCHCLGDVLIENTKESKSQSEDLGRKPMESSSVVSCRDRKDRRRSMCYSDGRSLHLEKNGNHTPSSSVGSSVEISLENSELFKDLSDAIEQTFQRRNSETKVRRSTRLQKDLENEGLVWISLPLPSTSQKAKRRTICTFDSSGFESMSPIKETVSSRQKPQMAPPVSDPENSQGPAAGSSDEPGKRRKSFCISTLANTKATSQFKGYRRRSSLNGKGESSLTALERIEHNGERKQ
For B1, the ratio to parent turned out to be 0.19.

B2: EGFP-tagged RepoMan-WT, Q69YH5 T412D (protein)
chain: MDANSKDKPPETKESAMNNAGNASFILGTGKIVTPQKHAELPPNPCTPDTFKSPLNFSTVTVEQLGITPESFVRNSAGKSSSYLKKCRRRSAVGARGSPETNHLIRFIARQQNIKNARKSPLAQDSPSQGSPALYRNVNTLRERISAFQSAFHSIKENEKMTGCLEFSEAGKESEMTDLTRKEGLSACQQSGFPAVLSSKRRRISYQRDSDENLTDAEGKVIGLQIFNIDTDRACAVETSVDLSEISSKLGSTQSGFLVEESLPLSELTETSNALKVADCVVGKGSSDAVSPDTFTAEVSSDAVPDVRSPATPACRRDLPTPKTFVLRSVLKKPSVKMCLESLQEHCNNLYDDDGTHPSLISNLPNCCKEKEAEDEENFEAPAFLNMRKRKRVTFGEDLSPEVFDESLPANDPLRKGGTPVCKKDFSGLSSLLLEQSPVPEPLPQPDFDDKGENLENIEPLQVSFAVLSSPNKSSISETLSGTDTFSSSNNHEKISSPKVGRITRTSNRRNQLVSVVEESVCNLLNTEVQPCKEKKINRRKSQETKCTKRALPKKSQVLKSCRKKKGKGKKSVQKSLYGERDIASKKPLLSPIPELPEVPEMTPSIPSIRRLGSGYFSSNGKLEEVKTPKNPVKRKDLLRHDPDLHMHQGYDKYDVSEFCSYIKSSSSLGNATSDEDPNTNIMNINENKNIPKAKNKSESENEPKAGTDSPVSCASVTEERVASDSPKPALTLQQGQEFSAGGQNAENLCQFFKISPDLNIKCERKDDFLGAAEGKLQCNRLMPNSQKDCHCLGDVLIENTKESKSQSEDLGRKPMESSSVVSCRDRKDRRRSMCYSDGRSLHLEKNGNHTPSSSVGSSVEISLENSELFKDLSDAIEQTFQRRNSETKVRRSTRLQKDLENEGLVWISLPLPSTSQKAKRRTICTFDSSGFESMSPIKETVSSRQKPQMAPPVSDPENSQGPAAGSSDEPGKRRKSFCISTLANTKATSQFKGYRRRSSLNGKGESSLTALERIEHNGERKQ
On to B2, for which the ratio to parent was determined as 0.43.
